{"source": "patent US6720475", "about": "“Nucleic acid sequence encoding FLP recombinase” (Pioneer Hi-Bred International, Inc.)", "key": {"[1]": {"biological_target": "T1, moFLP (FLP recombinase from maize-codon-optimized gene) (Saccharomyces cerevisiae, UniProt P03870 SEQ:1-423)", "T1 chain": "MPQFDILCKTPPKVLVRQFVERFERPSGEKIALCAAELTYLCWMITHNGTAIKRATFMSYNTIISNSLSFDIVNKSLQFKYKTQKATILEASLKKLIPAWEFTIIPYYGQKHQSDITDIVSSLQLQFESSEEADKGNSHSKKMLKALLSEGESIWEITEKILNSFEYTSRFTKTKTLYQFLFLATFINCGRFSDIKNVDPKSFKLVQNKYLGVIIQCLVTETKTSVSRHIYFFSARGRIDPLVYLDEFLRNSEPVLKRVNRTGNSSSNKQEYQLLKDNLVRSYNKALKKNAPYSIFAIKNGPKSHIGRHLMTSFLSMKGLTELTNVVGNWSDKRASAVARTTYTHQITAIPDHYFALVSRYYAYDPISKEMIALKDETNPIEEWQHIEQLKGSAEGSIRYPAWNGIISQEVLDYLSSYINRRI", "test": "cell_activity; ED50 for excision between genomic FRT sites in BMS cells, PHP5096 plasmid dose", "details": "chain copies: 4", "description": "(§1) The moFLP gene produces higher levels of site-specific excision in maize cells than FLPy. The FRT-containing BMS transformants produced in Example IIA were transfected with varied doses of FLP-expressing vectors for site specific excision of genomic transgenic sequences using the methods described above for Example II-C. Plasmids expressing FLP, PHP5095 (FLPy), and PHP5096 (moFLP) are described above for Example I-A (see Table I-A-1). The FRT/moFLP-containing PHP5849 is described above for Example I-F (see Table I-F-1). Control plasmids used were PHP3703 (non-FLP negative control; with UBI promoter and intron, wheat germ agglutinin structural gene, and pinII 3' end), PHP3953 (positive control; with UBI promoter and intron, GUS structural gene, and pinII 3' end), and pUC18 (with no plant expression cassette used as carrier DNA to keep the total DNA load constant). Cell culture methods, DNA bombardment methods, and assay methods were those described above for Example I. The experimental design is shown below in Table II-D-1.\n(§2) GUS activity indicating FLP-mediated excision of genomic DNA in cells transfected with FLYy or moFLP is shown below in Tables II-D-2 and II-D-3. The $ED50$ for each FLP expression plasmid shown in Table II-D-3 was manually determined from graphing the data."}, "[2]": {"biological_target": "T2, FLPy (FLP recombinase from native yeast gene) (Saccharomyces cerevisiae, UniProt P03870 SEQ:1-423)", "T2 sequence": "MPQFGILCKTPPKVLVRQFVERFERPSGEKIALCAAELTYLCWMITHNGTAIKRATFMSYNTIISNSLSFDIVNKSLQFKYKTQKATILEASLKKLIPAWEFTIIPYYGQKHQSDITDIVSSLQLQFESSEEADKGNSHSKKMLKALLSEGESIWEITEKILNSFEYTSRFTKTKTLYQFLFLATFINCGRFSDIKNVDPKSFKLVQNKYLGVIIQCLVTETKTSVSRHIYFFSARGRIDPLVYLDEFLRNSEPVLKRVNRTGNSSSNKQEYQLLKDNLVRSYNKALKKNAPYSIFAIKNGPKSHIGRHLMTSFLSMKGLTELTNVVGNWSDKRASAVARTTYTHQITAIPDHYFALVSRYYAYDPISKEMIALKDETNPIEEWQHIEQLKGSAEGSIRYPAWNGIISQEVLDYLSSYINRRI", "test": "cell_activity; ED50 for excision between genomic FRT sites in BMS cells, PHP5095 plasmid dose", "details": "tags: expressed in maize cells; chain copies: 4", "description": "as §1, §2"}}}
{"binder": "FRT site (FRT-1) (dsDNA) DNA 1: GAAGTTCCTATTCTCTAGAAAGTATAGGAACTTC DNA 2: GAAGTTCCTATACTTTCTAGAGAATAGGAACTTC", "values": [{"measurement": "EC50", "setting": "[1]", "value": 0.03, "unit": "ug FLP expression vector"}, {"measurement": "EC50", "setting": "[2]", "value": 0.13, "unit": "ug FLP expression vector"}]}
